Earlier results as cited in article PMC12336664.

Molecular target: FXa (Homo sapiens) (UniProt P00742)
UniProt P00742, sequence (P00742 41-179, chain 1 of 2): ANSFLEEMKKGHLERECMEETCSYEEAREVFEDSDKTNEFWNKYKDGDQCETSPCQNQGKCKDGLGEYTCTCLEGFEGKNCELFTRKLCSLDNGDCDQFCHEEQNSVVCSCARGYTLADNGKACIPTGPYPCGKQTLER
UniProt P00742, sequence (P00742 235-488, chain 2 of 2): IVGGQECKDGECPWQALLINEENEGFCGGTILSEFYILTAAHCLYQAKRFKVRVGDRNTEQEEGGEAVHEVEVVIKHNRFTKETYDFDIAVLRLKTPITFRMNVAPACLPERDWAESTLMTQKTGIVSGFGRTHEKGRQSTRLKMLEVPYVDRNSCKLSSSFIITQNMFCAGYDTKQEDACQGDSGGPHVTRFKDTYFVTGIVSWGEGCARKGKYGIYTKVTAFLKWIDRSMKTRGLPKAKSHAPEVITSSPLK

Kd: 0.02 nM
Substance: TFPIα (from UniProt P10646)
